Earlier results, collected in publication PMC6447450.

Biological target: Mcl-1 (Homo sapiens) (UniProt Q07820)
Sequence (Q07820 whole entry): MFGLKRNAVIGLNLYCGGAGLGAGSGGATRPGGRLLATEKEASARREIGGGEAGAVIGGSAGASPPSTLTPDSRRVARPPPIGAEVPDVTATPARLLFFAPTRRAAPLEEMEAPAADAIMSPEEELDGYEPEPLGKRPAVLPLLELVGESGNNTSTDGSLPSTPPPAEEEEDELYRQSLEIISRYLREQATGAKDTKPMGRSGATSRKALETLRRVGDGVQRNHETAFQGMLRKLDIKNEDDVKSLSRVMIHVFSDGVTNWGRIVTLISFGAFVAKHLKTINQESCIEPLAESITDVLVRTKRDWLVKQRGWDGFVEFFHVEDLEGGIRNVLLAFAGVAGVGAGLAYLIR

Chain of native BH3 peptide (BIM, 2PQK) BH3 (O43521 143-165): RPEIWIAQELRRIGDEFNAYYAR

- Kd: 1 nM
Substance: native BH3 peptide (BIM, 2PQK) BH3 (from UniProt O43521)
